Data published in PMC11046469, “Leveraging a Phage-Encoded Noncanonical Amino Acid: A Novel Pathway to Potent and Selective Epigenetic Reader Protein Inhibitors” (ACS Central Science, 2024).

Target: T1, ENL YEATS domain (AviSUMO-ENL YEATS) (Homo sapiens, UniProt Q03111)
T1 construct: encoding ENL YEATS (aa 1−148) was cloned in pET28a-; made in house; host or cells: E. coli BL21(DE3pLysS), co-expressed with BirA (pBirAcm)
T1 sequence (Q03111 1-148): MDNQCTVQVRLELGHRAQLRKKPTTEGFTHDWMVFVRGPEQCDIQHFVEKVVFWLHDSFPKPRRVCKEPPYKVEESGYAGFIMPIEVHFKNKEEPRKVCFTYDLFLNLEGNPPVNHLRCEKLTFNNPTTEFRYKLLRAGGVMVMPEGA
Experiment: Phage panning of BuK-containing 7-mer library against AviSUMO-ENL YEATS with Illumina NGS abundance
Details: sheet ENLR3: round 3 of panning against ENL YEATS; TAG = amber codon (BuK); 7-mer library positions V1-V7
Text: We utilized a previously established amber-obligate 7-mer phage display library to develop a phage display library enriched with BuK-containing 7-mer peptides. For detailed characterizations, including analysis of amber codon percentages, NNK trinucleotide analysis, and amino acid distribution at each position within the library, please refer to the work of Tharp et al.[10] Furthermore, the comprehensive raw NGS data for the amber-obligate 7-mer phage library can be found in the NCBI’s Sequence Read Archive, under the accession ID PRJNA606283. To produce the BuK-containing 7-mer phage library, the phages were produced in the presence of 5 mM BuK using TOP10 cells harboring the following three plasmids: (1) pADL-gIII, which contains the 7-mer amber-obligate peptide-coding DNA library positioned at the N-terminus of M13 pIII gene; (2) pCDF-BuKRS, which encodes BuKRS and its cognate tRNA^Pyl for the genetic incorporation of BuK at amber codons in the 7-mer library; and (3) M13KO7TAA, a helper phage plasmid engineered to have a TAA mutation at pIII so that its lack of a functional pIII allows an efficient multivalent display of the 7-mer library. The ENL YEATS domain containing an N-terminal AviSUMO-Tag was recombinantly expressed in E. coli together with BirA, a biotin ligase, for site-specific biotinylation at the AviTag. The biotinylated AviSUMO-ENL YEATS was immobilized on streptavidin-coated magnetic beads for panning with the BuK-containing phages. […] Phage libraries collected from the first and third rounds of selection were sequenced using Illumina next generation sequencing (NGS) and all sequenced data are available through the NCBI SRA database (Project PRJNA1041845). To prevent possible sequencing errors from affecting conclusions, sequences were filtered using previously published paired-end processing,[10] where any sequences containing more than one mismatch in the nonlibrary region or any mismatch in the library region were discarded. The NGS data provided DNA sequences encompassing both the library and nonlibrary regions. In our analysis, we included data from the nonlibrary region as a stringent quality control measure to filter out low-quality data. For our analysis, we utilized 51 nucleotides from the NGS output, with 21 nucleotides encoding the library region and an additional 30 nucleotides for the nonlibrary region. […] Among all the sequences, only 85 of them contained more than 100 copies (blue area), while the remaining sequences all had low abundances (<10^2 copies, dark and light gray areas), which constituted 85.2% of the first round population. After three panning rounds, the selection converged to two highly enriched sequences: YDVYCYX (ENL-S1) and WWIIEXG (ENL-S2, X denotes BuK). Out of 551 different unique sequences collected from the third round, ENL-S1 and ENL-S2 represented 85% of the entire library (Figure 2A and Figures S6–S8). Both peptide sequences corresponded to their own unique DNA sequence, rather than there being varying codons encoding the same amino acids (Figure S7). […] Two motifs were found in the majority of sequences with high abundance (greater than 0.1%) (Figure S6). A Y(C/L)Y pattern was identified in the residues adjacent to BuK in four of the eight top sequences. Also, an H(L/Y)(T/V)LFXG (X denotes BuK) motif was observed, albeit at lower abundances, in two of the top sequences. In the initial round of selection, we observed that only a small percentage of phages were eluted, which aligns with typical outcomes in phage selection experiments since only a low copy number of phages can bind to the target.[10],[45] With each successive round of selection, we noted a gradual increase in the percentage of phages eluted. This incremental, rather than sharp, increase was attributed to the intensification of selection pressures, such as the application of more stringent washing protocols. We aimed for the incremental increase to retain potent clones with low copy numbers from the previous selection cycle. […]

Substance | n (number of NGS reads of the unique amino acid sequence) | percent (share of sequence reads)
ATAGSFHYL | 1 | 0.0009106%
WWIIEQG | 2 | 0.001821%
CHNWICTAG | 1 | 0.0009106%
WRIIETAGG | 9 | 0.008196%
HYVLFTAGG | 612 | 0.5573%
HSIYCYTAG | 1 | 0.0009106%
CDVYCYTAG | 10 | 0.009106%
WWIIGTAGG | 6 | 0.005464%
LAYCTAGHN | 2 | 0.001821%
WWVAGPTAG | 70 | 0.06374%
QCGSRTAGD | 3 | 0.002732%
YDVYCTAGTAG | 3 | 0.002732%
LLIIETAGG | 1 | 0.0009106%
YDVFCYTAG | 8 | 0.007285%
YDVYCYL | 2 | 0.001821%
SWILWTAGG | 8 | 0.007285%
MFTAGITDN | 1 | 0.0009106%
SQCTAGECA | 2 | 0.001821%
HYFLFTAGG | 1 | 0.0009106%
WWTIETAGG | 2 | 0.001821%
YLYTAGFPC | 5 | 0.004553%
FDVYCYTAG | 2 | 0.001821%
LYGSTAGDC | 1 | 0.0009106%
CYPTAGKCC | 1 | 0.0009106%

Substance | n (number of NGS reads of the unique amino acid sequence) | percent (share of sequence reads)
HLTFFTAGG | 3 | 0.002732%
CCWTAGGGN | 2 | 0.001821%
WWVFDATAG | 10 | 0.009106%
LLWTAGLAS | 1 | 0.0009106%
QCGPRTAGD | 9049 | 8.24%
FLYTAGMPV | 1 | 0.0009106%
VYCYTAGVW | 3 | 0.002732%
IGSIHYTAG | 1 | 0.0009106%
YDVYRYTAG | 9 | 0.008196%
YDIYCYTAG | 3 | 0.002732%
SLMMCQTAG | 2 | 0.001821%
NAIYCYTAG | 1 | 0.0009106%
QCGQRTAGD | 10 | 0.009106%
QCVPRTAGD | 5 | 0.004553%
YDVYSYTAG | 3 | 0.002732%
HLTLFYG | 3 | 0.002732%
SWYITFTAG | 79 | 0.07194%
QCGTRTAGD | 13 | 0.01184%
YLYYVPC | 6 | 0.005464%
YDVYFYTAG | 47 | 0.0428%
HSWFTAGDG | 1 | 0.0009106%
YDAYCYTAG | 11 | 0.01002%
YLYTAGVPC | 1006 | 0.9161%
WLIIETAGG | 30 | 0.02732%

Same assay, conditions: sheet ENLR3: round 3 of selection against ENL YEATS; TAG = amber codon (BuK)

Substance | n (number of NGS reads of the 7-mer sequence V1-V7) | percent (share of NGS reads of the 7-mer sequence V1-V7)
WWIIELG | 1 | 0.0009106%
YLYTAGVPF | 1 | 0.0009106%
SLERTAGGF | 1 | 0.0009106%
SGVGFTAGS | 1 | 0.0009106%
TAGTYYVCR | 1 | 0.0009106%
QCGPRQD | 1 | 0.0009106%
YWTAGCARV | 1 | 0.0009106%
QCGPRWD | 1 | 0.0009106%
WWITETAGG | 1 | 0.0009106%
YGTAGHDFF | 1 | 0.0009106%
TAGMVHIMV | 1 | 0.0009106%
WWILETAGG | 1 | 0.0009106%
TAGNVCGTV | 1 | 0.0009106%
YVGPLTAGG | 1 | 0.0009106%
VATAGMWPC | 1 | 0.0009106%
QCAPRTAGD | 1 | 0.0009106%
SSGTAGKCV | 1 | 0.0009106%
WWIIATAGG | 1 | 0.0009106%
QWGPRTAGD | 1 | 0.0009106%
QCGPRTAGV | 1 | 0.0009106%
